Source: article PMC11268888, “Glycan-shielded homodimer structure and dynamical features of the canine distemper virus hemagglutinin relevant for viral entry and efficient vaccination” (eLife, 2024)

Experiments:
[1] = target: T1, ectodomain of human Nectin-4 (residues 1-333) (human, UniProt Q96NY8 32-333); assay: SPR; […]; HBS-EP (10 mM HEPES pH 7.4, 150 mM NaCl, 3 mM EDTA, 0.005% Surfactant P20); […]; details: both partners purified
T1 construct: also called hNectin-4; PVRL4
T1 sequence (looked up): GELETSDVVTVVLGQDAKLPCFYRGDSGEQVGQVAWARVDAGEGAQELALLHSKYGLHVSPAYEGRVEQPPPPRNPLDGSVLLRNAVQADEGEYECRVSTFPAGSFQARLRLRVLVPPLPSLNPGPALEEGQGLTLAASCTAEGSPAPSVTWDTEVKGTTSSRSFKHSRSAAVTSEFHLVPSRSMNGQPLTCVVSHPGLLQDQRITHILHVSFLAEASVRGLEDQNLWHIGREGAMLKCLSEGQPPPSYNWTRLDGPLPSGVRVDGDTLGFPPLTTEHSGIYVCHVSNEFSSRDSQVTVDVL

[2] = target: T2, ectodomain of dog Nectin-4 (residues 1-332) (dog); assay: as above; details: both partners purified
T2 construct: also called dNectin-4; PVRL4

B1: MeV-H (measles virus hemagglutinin), wild-type strain (domain or fragment)
chain: DYDQYCADVAAEELMNALVNSTLLEARATNQFLAVSKGNCSGPTTIRGQFSNMSLSLLDLYLSRGYNVSSIVTMTSQGMYGGTYLVGKPNLSSKGSELSQLSMHRVFEVGVIRNPGLGAPVFHMTNYFEQPVSNDFSNCMVALGELKFAALCHREDSITIPYQGSGKGVSFQLVKLGVWKSPTDMRSWVPLSTDDPVIDRLYLSSHRGVIADNQAKWAVPTTRTDDKLRMETCFQQACKGKNQALCENPEWAPLKDNRIPSYGVLSVNLSLTVELKIKIASGFGPLITHGSGMDLYKTNHNNVYWLTIPPMKNLALGVINTLEWIPRFKVSPNLFTVPIKEAGEDCHAPTYLPAEVDGDVKLSSNLVILPGQDLQYVLATYDTSRVEHAVVYYVYSPSRSFSYFYPFRLPIKGVPIELQVECFTWDKKLWCRHFCVLADSESGGHITHSGMVGMGVSCTVTREDGTNRR
Ka [1]: 1.48e+06 M⁻¹
Kd [1]: 674 nM
Ka [2]: 739000 M⁻¹
Kd [2]: 1350 nM
